For data set [1], the system named is Saccharomyces cerevisiae. Nature of the data set: protein stability index of tFT-peptide fusion (C-terminal peptide) (PSI (0-1 scale)); higher = more stable (slower turnover). As for the experimental part: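 MPS profiling in S. cerevisiae of the tFT-X12 degron library: putative degron peptides plus stable controls, 12 aa, fused to the C-terminus of a sfGFP-mCherry timer. Cells are FACS-sorted into 8 mCherry/sfGFP bins and deep-sequenced. PSI runs from 0 (unstable) to 1 (stable). Backgrounds are wild type, das1Δ and doa10Δ at 30 °C, and wild type, das1Δ, cdc34-1 and cdc53-1 at 37 °C; 2-3 technical replicates each.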

The test system of data set [2] is Saccharomyces cerevisiae. The data set is described as above. Conditions: genetic background: wild type; temperature: 30 C.
Where [3] appears, read: genetic background: cdc34-1, temperature: 37 C.
Where [4] appears, read: genetic background: cdc53-1, temperature: 37 C.
The mark [5] stands for this setting: genetic background: das1 deletion, temperature: 30 C.
Setting [6] is: genetic background: das1 deletion, temperature: 37 C.
[7] abbreviates: genetic background: doa10 deletion, temperature: 30 C.
The mark [8] stands for this setting: genetic background: wild type, temperature: 30 C.
[9] abbreviates: genetic background: wild type, temperature: 37 C.

± gives the standard deviation of the averaged measurements.
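Note: PSI is a weighted mean of sequencing reads over stability bins, variants kept only with over 10 reads, mCherry proximal and sfGFP distal, peptide attached via GGGS linker.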

As for STVGAWGRVGEG, the protein stability index in the data set on Saccharomyces cerevisiae [1] (setting [3]) amounted to 0.435 ± 0.018; in the data set on Saccharomyces cerevisiae [1] (setting [4]), 0.462 ± 0.038; with Saccharomyces cerevisiae [1] (setting [5]), 0.418 ± 0.035; in the data set with Saccharomyces cerevisiae [1] (setting [6]) it was 0.484 ± 0.0078; in the data set on Saccharomyces cerevisiae [1] (setting [7]) it was 0.45024 ± 0.00039; in the data set on Saccharomyces cerevisiae [1] (setting [8]) it was 0.438 ± 0.016. For the same sequence, the protein stability index was 0.472 ± 0.0089 in the data set on Saccharomyces cerevisiae [1] (setting [9]) and 0.459 ± 0.025 with Saccharomyces cerevisiae [2].
SVFFRPVLICCA: the protein stability index in the data set with Saccharomyces cerevisiae [1] (setting [3]) is 0.0234 ± 0.00059; in the data set with Saccharomyces cerevisiae [1] (setting [4]), 0.0313 ± 0.0091; in the data set with Saccharomyces cerevisiae [1] (setting [5]) it was 0.0774 ± 0.01; in the data set with Saccharomyces cerevisiae [1] (setting [6]), 0.0628 ± 0.0047; with Saccharomyces cerevisiae [1] (setting [7]), 0.0558 ± 0.0082; in the data set with Saccharomyces cerevisiae [1] (setting [8]) it was 0.0558 ± 0.013. For the same sequence, the protein stability index was 0.048 ± 0.0039 in the data set with Saccharomyces cerevisiae [1] (setting [9]) and 0.101 ± 0.037 with Saccharomyces cerevisiae [2].
Regarding SVLAIWLTVTLK, the protein stability index in the data set on Saccharomyces cerevisiae [1] (setting [3]) is 0.0666 ± 0.029; in the data set on Saccharomyces cerevisiae [1] (setting [4]), 0.0696 ± 0.029; in the data set with Saccharomyces cerevisiae [1] (setting [5]), 0.146 ± 0.016; in the data set with Saccharomyces cerevisiae [1] (setting [6]), 0.197 ± 0.0027; in the data set on Saccharomyces cerevisiae [1] (setting [7]), 0.0915 ± 0.023; with Saccharomyces cerevisiae [1] (setting [8]), 0.0938 ± 0.034. The protein stability index was found to be 0.139 ± 0.0076 in the data set with Saccharomyces cerevisiae [1] (setting [9]) and 0.145 ± 0.0018 in the data set with Saccharomyces cerevisiae [2].
For the sequence SVLVSVVLFVRS, the protein stability index came to 0.114 ± 0.055 with Saccharomyces cerevisiae [1] (setting [3]); 0.237 ± 0.021 in the data set with Saccharomyces cerevisiae [1] (setting [4]); 0.176 ± 0.019 with Saccharomyces cerevisiae [1] (setting [5]); 0.33663 ± 7.1e-05 in the data set with Saccharomyces cerevisiae [1] (setting [6]); 0.126 ± 0.032 with Saccharomyces cerevisiae [1] (setting [7]); 0.168 ± 0.033 in the data set on Saccharomyces cerevisiae [1] (setting [8]). The protein stability index with Saccharomyces cerevisiae [1] (setting [9]) came to 0.289 ± 0.026; in the data set on Saccharomyces cerevisiae [2], 0.279 ± 0.0029.
For the sequence SVSMYPKPHLIC, the protein stability index with Saccharomyces cerevisiae [1] (setting [3]) was 0.571 ± 0.057; in the data set with Saccharomyces cerevisiae [1] (setting [4]) it was 0.682 ± 0.023; in the data set with Saccharomyces cerevisiae [1] (setting [5]), 0.596 ± 0.034; with Saccharomyces cerevisiae [1] (setting [6]) it was 0.698 ± 0.034; in the data set on Saccharomyces cerevisiae [1] (setting [7]), 0.119 ± 0.015; in the data set on Saccharomyces cerevisiae [1] (setting [8]) it was 0.13 ± 0.017. For the same sequence, the values for the protein stability index in the data set with Saccharomyces cerevisiae [1] (setting [9]) and with Saccharomyces cerevisiae [2] were 0.181 ± 0.015 and 0.243 ± 0.0026, respectively.
With SVSRIFRTFSCY, the protein stability index was 0.627 ± 0.023 in the data set with Saccharomyces cerevisiae [1] (setting [3]); 0.759 ± 0.054 with Saccharomyces cerevisiae [1] (setting [4]); 0.668 ± 0.013 in the data set on Saccharomyces cerevisiae [1] (setting [5]); 0.681 ± 0.047 in the data set on Saccharomyces cerevisiae [1] (setting [6]); 0.216 ± 0.035 in the data set with Saccharomyces cerevisiae [1] (setting [7]); 0.224 ± 0.0094 in the data set on Saccharomyces cerevisiae [1] (setting [8]). For the same sequence, the protein stability index is 0.396 ± 0.041 in the data set with Saccharomyces cerevisiae [1] (setting [9]) and 0.321 ± 0.07 with Saccharomyces cerevisiae [2].
As for SVVYVIYCGGIL, the protein stability index came out at 0.446 ± 0.0082 in the data set with Saccharomyces cerevisiae [1] (setting [3]); 0.481 ± 0.075 with Saccharomyces cerevisiae [1] (setting [4]); 0.31 ± 0.036 in the data set on Saccharomyces cerevisiae [1] (setting [5]); 0.555 ± 0.019 with Saccharomyces cerevisiae [1] (setting [6]); 0.29 ± 0.0048 in the data set with Saccharomyces cerevisiae [1] (setting [7]); 0.336 ± 0.013 in the data set with Saccharomyces cerevisiae [1] (setting [8]). Besides, the protein stability index is 0.503 ± 0.036 in the data set with Saccharomyces cerevisiae [1] (setting [9]) and 0.427 ± 0.036 with Saccharomyces cerevisiae [2].
SWFRRPFPPRLL: the protein stability index stood at 0.6 ± 0.025 in the data set with Saccharomyces cerevisiae [1] (setting [4]); 0.606 ± 0.052 with Saccharomyces cerevisiae [1] (setting [5]); 0.67 ± 0.063 in the data set with Saccharomyces cerevisiae [1] (setting [6]); 0.048 ± 0.068 in the data set with Saccharomyces cerevisiae [1] (setting [7]); 0.0127 ± 0.018 in the data set on Saccharomyces cerevisiae [1] (setting [9]); 0.158 ± 0.094 with Saccharomyces cerevisiae [2].
With SWLAQCVVISLL, the protein stability index is 0.634 ± 0.015 in the data set on Saccharomyces cerevisiae [1] (setting [3]); 0.654 ± 0.014 in the data set with Saccharomyces cerevisiae [1] (setting [4]); 0.507 ± 0.029 in the data set on Saccharomyces cerevisiae [1] (setting [5]); 0.662 ± 0.016 in the data set on Saccharomyces cerevisiae [1] (setting [6]); 0.352 ± 0.0055 in the data set with Saccharomyces cerevisiae [1] (setting [7]); 0.364 ± 0.019 in the data set on Saccharomyces cerevisiae [1] (setting [8]). For the same sequence, the protein stability index in the data set on Saccharomyces cerevisiae [1] (setting [9]) is 0.56 ± 0.061; with Saccharomyces cerevisiae [2], 0.459 ± 0.011.
Take TALSRLFECFLS: the protein stability index was found to be 0.654 ± 0.052 in the data set on Saccharomyces cerevisiae [1] (setting [3]); 0.744 ± 0.026 in the data set on Saccharomyces cerevisiae [1] (setting [4]); 0.701 ± 0.028 with Saccharomyces cerevisiae [1] (setting [5]); 0.768 ± 0.01 in the data set with Saccharomyces cerevisiae [1] (setting [6]); 0.328 ± 0.0048 in the data set on Saccharomyces cerevisiae [1] (setting [7]); 0.343 ± 0.03 in the data set with Saccharomyces cerevisiae [1] (setting [8]). Besides, the protein stability index with Saccharomyces cerevisiae [1] (setting [9]) stood at 0.499 ± 0.035; in the data set on Saccharomyces cerevisiae [2], 0.461 ± 0.046.
Consider TCGAKWIFSHIC, for which the protein stability index was determined as 0.6 ± 0.054 in the data set on Saccharomyces cerevisiae [1] (setting [3]); 0.754 ± 0.011 in the data set with Saccharomyces cerevisiae [1] (setting [4]); 0.646 ± 0.022 with Saccharomyces cerevisiae [1] (setting [5]); 0.772 ± 0.016 in the data set with Saccharomyces cerevisiae [1] (setting [6]); 0.14 ± 0.0052 in the data set on Saccharomyces cerevisiae [1] (setting [7]); 0.152 ± 0.0092 with Saccharomyces cerevisiae [1] (setting [8]). Also, the protein stability index was determined as 0.275 ± 0.035 in the data set with Saccharomyces cerevisiae [1] (setting [9]) and 0.267 ± 0.019 in the data set on Saccharomyces cerevisiae [2].
On to TFVGWIVWLCGS, for which the protein stability index is 0.537 ± 0.026 in the data set on Saccharomyces cerevisiae [1] (setting [3]); 0.621 ± 0.0073 with Saccharomyces cerevisiae [1] (setting [4]); 0.487 ± 0.033 with Saccharomyces cerevisiae [1] (setting [5]); 0.6164 ± 0.0052 in the data set on Saccharomyces cerevisiae [1] (setting [6]); 0.216 ± 0.0069 in the data set with Saccharomyces cerevisiae [1] (setting [7]); 0.258 ± 0.022 with Saccharomyces cerevisiae [1] (setting [8]). Moreover, the protein stability index in the data set with Saccharomyces cerevisiae [1] (setting [9]) came out at 0.456 ± 0.0097; in the data set on Saccharomyces cerevisiae [2], 0.331 ± 0.018.
Turning to TFVLREYVWVMS, the protein stability index in the data set with Saccharomyces cerevisiae [1] (setting [3]) was 0.443 ± 0.049; with Saccharomyces cerevisiae [1] (setting [4]) it was 0.425 ± 0.011; with Saccharomyces cerevisiae [1] (setting [5]) it was 0.254 ± 0.038; in the data set on Saccharomyces cerevisiae [1] (setting [6]), 0.443 ± 0.0057; in the data set with Saccharomyces cerevisiae [1] (setting [7]), 0.202 ± 0.0032; in the data set with Saccharomyces cerevisiae [1] (setting [8]), 0.231 ± 0.027. Besides, the protein stability index was determined as 0.426 ± 0.027 in the data set on Saccharomyces cerevisiae [1] (setting [9]) and 0.304 ± 0.0032 in the data set with Saccharomyces cerevisiae [2].
Turning to TIKGRLNVRKIE, the protein stability index was 0.653 ± 0.055 with Saccharomyces cerevisiae [1] (setting [3]); 0.7066 ± 0.0065 with Saccharomyces cerevisiae [1] (setting [4]); 0.623 ± 0.0085 in the data set with Saccharomyces cerevisiae [1] (setting [5]); 0.741 ± 0.025 in the data set with Saccharomyces cerevisiae [1] (setting [6]); 0.3538 ± 0.0019 in the data set with Saccharomyces cerevisiae [1] (setting [7]); 0.463 ± 0.032 in the data set on Saccharomyces cerevisiae [1] (setting [8]). In addition, the protein stability index is 0.573 ± 0.085 in the data set on Saccharomyces cerevisiae [1] (setting [9]) and 0.552 ± 0.11 in the data set on Saccharomyces cerevisiae [2].
As to TPYIFVLACLHV, the protein stability index in the data set on Saccharomyces cerevisiae [1] (setting [3]) was found to be 0.395 ± 0.0014; in the data set with Saccharomyces cerevisiae [1] (setting [4]) it was 0.476 ± 0.0062; with Saccharomyces cerevisiae [1] (setting [5]), 0.326 ± 0.013; with Saccharomyces cerevisiae [1] (setting [6]), 0.5039 ± 0.0042; with Saccharomyces cerevisiae [1] (setting [7]) it was 0.274 ± 0.013; in the data set on Saccharomyces cerevisiae [1] (setting [8]), 0.309 ± 0.021. For the same sequence, the protein stability index with Saccharomyces cerevisiae [1] (setting [9]) turned out to be 0.461 ± 0.0069; with Saccharomyces cerevisiae [2], 0.372 ± 0.0091.

For the origin of these results see the supplement of paper PMC10724198.
